{"source": "patent US20230340151A1", "about": "(Pfizer, published 2023)", "key": {"[1]": {"molecular_target": "T1, Human GUCY2c on tumor cells (T84, HT55) (human, UniProt P25092 24-1073)", "T1 sequence (P25092 24-1073 limits assumed)": "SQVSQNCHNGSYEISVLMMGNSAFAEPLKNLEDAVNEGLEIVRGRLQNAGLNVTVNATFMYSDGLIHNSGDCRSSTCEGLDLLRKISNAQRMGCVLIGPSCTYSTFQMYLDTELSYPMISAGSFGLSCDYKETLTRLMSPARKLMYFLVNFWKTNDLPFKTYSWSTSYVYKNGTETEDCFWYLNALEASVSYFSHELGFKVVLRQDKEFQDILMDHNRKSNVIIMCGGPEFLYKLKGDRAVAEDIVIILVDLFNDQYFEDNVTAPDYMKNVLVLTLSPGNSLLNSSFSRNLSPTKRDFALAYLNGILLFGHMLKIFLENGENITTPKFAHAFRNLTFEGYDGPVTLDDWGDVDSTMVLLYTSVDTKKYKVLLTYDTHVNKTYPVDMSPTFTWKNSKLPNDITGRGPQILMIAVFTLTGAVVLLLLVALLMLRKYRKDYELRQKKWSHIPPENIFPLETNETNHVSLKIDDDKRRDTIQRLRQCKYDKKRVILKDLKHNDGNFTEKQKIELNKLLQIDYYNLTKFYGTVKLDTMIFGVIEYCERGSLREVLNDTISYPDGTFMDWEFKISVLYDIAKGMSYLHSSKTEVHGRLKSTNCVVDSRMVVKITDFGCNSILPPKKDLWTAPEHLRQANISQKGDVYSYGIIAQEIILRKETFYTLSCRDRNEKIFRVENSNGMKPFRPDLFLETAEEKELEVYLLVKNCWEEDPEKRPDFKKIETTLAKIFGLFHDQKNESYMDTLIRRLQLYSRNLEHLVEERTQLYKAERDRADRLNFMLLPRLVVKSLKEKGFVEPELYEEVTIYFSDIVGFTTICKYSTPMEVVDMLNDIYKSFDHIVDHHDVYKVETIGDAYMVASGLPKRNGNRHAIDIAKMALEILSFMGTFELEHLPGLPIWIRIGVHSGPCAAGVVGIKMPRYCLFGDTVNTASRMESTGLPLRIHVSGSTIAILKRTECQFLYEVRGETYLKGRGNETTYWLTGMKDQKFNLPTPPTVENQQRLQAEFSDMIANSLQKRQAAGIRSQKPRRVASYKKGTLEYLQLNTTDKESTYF", "assay": "cell-based or functional assay"}, "[2]": {"molecular_target": "T2, Murine GUCY2C-ECD cleaved (mouse, UniProt Q3UWA6 20-433)", "T2 sequence": "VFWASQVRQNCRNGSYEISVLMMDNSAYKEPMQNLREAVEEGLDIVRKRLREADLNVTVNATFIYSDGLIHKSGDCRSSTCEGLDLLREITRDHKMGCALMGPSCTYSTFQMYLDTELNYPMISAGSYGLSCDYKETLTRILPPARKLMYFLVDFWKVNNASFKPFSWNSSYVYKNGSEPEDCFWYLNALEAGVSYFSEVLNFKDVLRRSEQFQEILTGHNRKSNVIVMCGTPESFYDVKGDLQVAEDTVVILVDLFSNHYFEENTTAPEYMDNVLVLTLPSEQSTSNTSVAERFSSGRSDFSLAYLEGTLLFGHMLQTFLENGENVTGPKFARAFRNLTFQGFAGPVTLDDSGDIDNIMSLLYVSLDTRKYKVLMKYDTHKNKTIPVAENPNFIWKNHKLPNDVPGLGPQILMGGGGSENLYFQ", "assay": "SPR, GUCY2c directly immobilized, 25 C"}, "[3]": {"molecular_target": "T1, Human GUCY2c on tumor cells (T84, HT55)", "assay": "cell-based or functional assay", "remark": "listed apart in the source"}, "[4]": {"molecular_target": "T3, Cynomolgus CD3 epsilon-delta (cynomolgus)", "T3 chain": "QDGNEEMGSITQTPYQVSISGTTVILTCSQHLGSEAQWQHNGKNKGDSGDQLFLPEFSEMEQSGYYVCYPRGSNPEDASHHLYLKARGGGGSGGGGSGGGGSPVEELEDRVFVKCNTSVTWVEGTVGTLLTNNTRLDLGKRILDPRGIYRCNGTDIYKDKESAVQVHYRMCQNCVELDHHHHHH", "assay": "SPR, printed anti-His capture, 25 C (Table 33D)"}, "Human CD3 epsilon-delta": {"molecular_target": "T4, Human CD3 epsilon-delta (human)", "T4 construct": "Single-chain epsilon-linker-delta with His6; also called huCD3", "T4 chain": "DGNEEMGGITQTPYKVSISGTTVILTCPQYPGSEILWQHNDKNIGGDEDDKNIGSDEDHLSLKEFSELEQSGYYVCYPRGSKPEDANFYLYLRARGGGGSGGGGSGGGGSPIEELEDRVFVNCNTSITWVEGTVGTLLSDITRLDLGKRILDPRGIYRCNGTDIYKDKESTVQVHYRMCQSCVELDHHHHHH", "assay": "SPR, anti-human IgG capture, 25 C"}, "[5]": {"molecular_target": "T5, Human GUCY2C full length (SEQ ID NO: 224), recombinant protein (human, UniProt P25092 24-430, limits assumed)", "T5 construct": "also called huGUCY2C; biotinylated human GUCY2c", "T5 sequence (P25092 24-430 F281L limits assumed)": "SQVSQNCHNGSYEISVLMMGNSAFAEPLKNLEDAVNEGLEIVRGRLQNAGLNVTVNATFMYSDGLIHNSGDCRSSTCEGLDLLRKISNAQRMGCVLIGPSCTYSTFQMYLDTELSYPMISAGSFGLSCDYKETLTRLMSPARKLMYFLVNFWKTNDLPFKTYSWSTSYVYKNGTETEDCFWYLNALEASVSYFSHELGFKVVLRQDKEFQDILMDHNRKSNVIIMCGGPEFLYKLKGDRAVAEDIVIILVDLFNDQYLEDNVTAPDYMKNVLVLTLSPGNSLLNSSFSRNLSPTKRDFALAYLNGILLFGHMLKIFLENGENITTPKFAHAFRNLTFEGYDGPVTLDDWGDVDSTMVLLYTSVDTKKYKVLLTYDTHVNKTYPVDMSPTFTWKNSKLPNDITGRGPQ", "assay": "SPR, GUCY2c directly immobilized, 25 C"}, "[6]": {"molecular_target": "T5, Human GUCY2C full length (SEQ ID NO: …)", "assay": "SPR, anti-human IgG capture, 25 C"}, "Human GUCY2C ECD-muIgG2a": {"molecular_target": "T6, Human GUCY2C ECD-muIgG2a (human)", "T6 construct": "also called human GUCY2c ECD-mouse IgG2a Fc fusion protein; huGUCY2c-mIgG2a", "T6 sequence (chain, as listed by the source limits assumed)": "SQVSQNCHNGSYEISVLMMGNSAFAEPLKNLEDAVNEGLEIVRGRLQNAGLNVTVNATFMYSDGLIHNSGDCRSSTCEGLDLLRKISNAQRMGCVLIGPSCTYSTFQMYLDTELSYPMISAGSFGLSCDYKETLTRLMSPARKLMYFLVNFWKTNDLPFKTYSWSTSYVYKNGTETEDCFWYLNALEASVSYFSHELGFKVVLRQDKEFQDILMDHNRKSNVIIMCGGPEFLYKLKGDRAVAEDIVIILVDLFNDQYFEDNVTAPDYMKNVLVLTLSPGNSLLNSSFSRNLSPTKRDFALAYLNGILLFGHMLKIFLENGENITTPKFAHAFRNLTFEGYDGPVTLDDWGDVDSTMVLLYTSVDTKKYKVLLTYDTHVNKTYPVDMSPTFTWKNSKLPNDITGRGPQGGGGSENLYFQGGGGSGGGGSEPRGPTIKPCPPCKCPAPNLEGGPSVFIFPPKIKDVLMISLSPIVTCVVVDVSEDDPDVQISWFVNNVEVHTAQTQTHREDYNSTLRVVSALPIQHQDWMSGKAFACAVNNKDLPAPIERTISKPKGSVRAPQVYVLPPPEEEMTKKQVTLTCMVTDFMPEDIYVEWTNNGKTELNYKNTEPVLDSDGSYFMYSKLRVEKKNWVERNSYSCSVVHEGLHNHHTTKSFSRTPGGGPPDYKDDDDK", "assay": "huCD3-huGUCY2C sandwich ELISA (CD3 coated)"}, "[7]": {"molecular_target": "T7, Cynomolgus GUCY2C-ECD Cleaved (cynomolgus, UniProt P25092 24-430 (human entry))", "T7 construct": "also called CyGUCY2C", "T7 chain": "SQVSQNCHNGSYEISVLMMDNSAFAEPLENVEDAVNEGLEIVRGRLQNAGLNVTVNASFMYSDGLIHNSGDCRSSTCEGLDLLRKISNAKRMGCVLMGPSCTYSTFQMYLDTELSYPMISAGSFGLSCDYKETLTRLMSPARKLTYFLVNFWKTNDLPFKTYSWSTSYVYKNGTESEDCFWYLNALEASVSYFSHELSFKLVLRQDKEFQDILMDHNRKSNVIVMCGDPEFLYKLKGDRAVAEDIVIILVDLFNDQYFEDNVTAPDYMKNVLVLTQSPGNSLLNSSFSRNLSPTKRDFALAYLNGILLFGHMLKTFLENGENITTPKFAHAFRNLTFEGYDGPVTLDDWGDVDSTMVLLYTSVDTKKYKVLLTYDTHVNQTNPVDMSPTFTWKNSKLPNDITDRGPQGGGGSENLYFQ", "assay": "SPR, anti-human IgG capture, 25 C"}, "[8]": {"molecular_target": "T2, Murine GUCY2C-ECD cleaved", "assay": "SPR, anti-human IgG capture, 25 C"}, "[9]": {"molecular_target": "T8, Human CD3 on naive human T cells (human, UniProt P07766 23-207)", "T8 construct": "whole, on cells; on cells it stands in the CD3/TCR complex", "assay": "flow cytometry titration on naive human T cells (PE-A Geo Mean against Ab in nM)"}, "[10]": {"molecular_target": "T1, Human GUCY2c on tumor cells (T84, HT55)", "assay": "flow cytometry titration on T84 tumor cells (PE-A Geo Mean against Ab in nM)"}, "GUCY2C-1608": {"molecular_target": "T9, GUCY2C-1608", "T9 construct": "also called GUCY2c CD3 bispecific", "assay": "competition DELFIA ELISA: peptide 19 in solution competes with the plate-bound full GUCY2c extracellular domain for GUCY2C-1608"}}, "note": "Like-named read-outs stand apart in the source and are kept apart here."}
{"binder": "GUCY2C-0240 (bispecific antibody) chain 1: DIQLTQSPSSLSASVGDRVTITCRASESVDNYGISFMNWFQQKPGKAPKLLIYAASNPGSGVPSRFSGSGSGTDFTLTISSLQPEDFATYYCQQSKEVPYTFGQGTKLEIKGGGSGGGGEVQLVESGGGLVQPGGSLRLSCAASGFTFSDYYMTWVRQAPGKGLEWVAFIRNRARGYTSDHNPSVKGRFTISRDNAKNSLYLQMNSLRAEDTAVYYCARDRPSYYVLDYWGQGTTVTVSSGCPPCPAPEAAGAPSVFLFPPKPKDTLMISRTPEVTCVVVDVSHEDPEVKFNWYVDGVEVHNAKTKPREEQYNSTYRVVSVLTVLHQDWLNGKEYKCKVSNKALPAPIEKTISKAKGQPREPQVCTLPPSREEMTKNQVSLWCLVKGFYPSDIAVEWESNGQPENNYKTTPPVLDSDGSFFLYSKLTVDKSRWQQGNVFSCSVMHEALHNHYTQKSLSLSPG chain 2: DIVMTQSPDSLAVSLGERATINCKSSQSLFNVRSRKNYLAWYQQKPGQPPKLLISWASTRESGVPDRFSGSGSGTDFTLTISSLQAEDVAVYYCKQSYDLFTFGSGTKLEIKGGGSGGGGEVQLVESGGGLVQPGGSLRLSCAASGYTFTTYWMQWVRQAPGKGLEWIGAIYPGDGMTTYTQKFKDRFTISADKAKNSAYLQMNSLRAEDTAVYYCVRKGMDYWGQGTLVTVSSGCPPCPAPEAAGAPSVFLFPPKPKDTLMISRTPEVTCVVVDVSHEDPEVKFNWYVDGVEVHNAKTKPREEQYNSTYRVVSVLTVLHQDWLNGKEYKCKVSNKALPAPIEKTISKAKGQPREPQVYTLPPCREEMTKNQVSLSCAVKGFYPSDIAVEWESNGQPENNYKTTPPVLDSDGSFFLVSKLTVDKSRWQQGNVFSCSVMHEALHNHYTQKSLSLSPG", "values": [{"measurement": "T84 tumor cell EC50 (T cell cytotoxicity, E:T 5:1)", "setting": "[1]", "result": 0.53, "unit": "nM"}, {"measurement": "Kd", "setting": "[2]", "result": 42.3, "unit": "nM"}, {"measurement": "koff", "setting": "[2]", "result": 0.00515, "unit": "s⁻¹"}, {"measurement": "kon", "setting": "[2]", "result": 122000, "unit": "M⁻¹ s⁻¹"}, {"measurement": "T84 tumor cell EC50 (T cell cytotoxicity, E:T 5:1)", "setting": "[3]", "result": 0.53, "unit": "nM"}, {"measurement": "Kd", "setting": "[4]", "result": 4.71, "unit": "nM"}, {"measurement": "koff", "setting": "[4]", "result": 0.00207, "unit": "s⁻¹"}, {"measurement": "kon", "setting": "[4]", "result": 440000, "unit": "M⁻¹ s⁻¹"}, {"measurement": "Kd", "setting": "Human CD3 epsilon-delta", "result": 3.73, "unit": "nM"}, {"measurement": "koff", "setting": "Human CD3 epsilon-delta", "result": 0.00129, "unit": "s⁻¹"}, {"measurement": "kon", "setting": "Human CD3 epsilon-delta", "result": 347000, "unit": "M⁻¹ s⁻¹"}, {"measurement": "Kd", "setting": "[5]", "result": 37.9, "unit": "nM"}, {"measurement": "koff", "setting": "[5]", "result": 0.00364, "unit": "s⁻¹"}, {"measurement": "kon", "setting": "[5]", "result": 96200, "unit": "M⁻¹ s⁻¹"}, {"measurement": "Kd", "setting": "[6]", "result": 37.9, "unit": "nM"}, {"measurement": "koff", "setting": "[6]", "result": 0.00364, "unit": "s⁻¹"}, {"measurement": "kon", "setting": "[6]", "result": 96200, "unit": "M⁻¹ s⁻¹"}, {"measurement": "EC50", "setting": "Human GUCY2C ECD-muIgG2a", "result": 0.0799, "unit": "nM"}, {"measurement": "Kd", "setting": "[7]", "result": 91.2, "unit": "nM"}, {"measurement": "koff", "setting": "[7]", "result": 0.00234, "unit": "s⁻¹"}, {"measurement": "kon", "setting": "[7]", "result": 26100, "unit": "M⁻¹ s⁻¹"}, {"measurement": "Kd", "setting": "[8]", "result": 317, "unit": "nM"}, {"measurement": "koff", "setting": "[8]", "result": 0.00336, "unit": "s⁻¹"}, {"measurement": "kon", "setting": "[8]", "result": 10600, "unit": "M⁻¹ s⁻¹"}]}
{"binder": "GUCY2C-0247 (bispecific antibody) chain 1: DIQLTQSPSSLSASVGDRVTITCRASESVDYYGTSLMQWYQQKPGKPPKLLIYAASNVESGVPSRFSGSGSGTDFTLTISSLQPEDFATYYCQQTRKVYTFGQGTKLEIKGGGSGGGGEVQLVESGGGLVQPGGSLRLSCAASGFTFSDYYMTWVRQAPGKGLEWVAFIRNRARGYTSDHNPSVKGRFTISRDNAKNSLYLQMNSLRAEDTAVYYCARDRPSYYVLDYWGQGTTVTVSSGCPPCPAPEAAGAPSVFLFPPKPKDTLMISRTPEVTCVVVDVSHEDPEVKFNWYVDGVEVHNAKTKPREEQYNSTYRVVSVLTVLHQDWLNGKEYKCKVSNKALPAPIEKTISKAKGQPREPQVCTLPPSREEMTKNQVSLWCLVKGFYPSDIAVEWESNGQPENNYKTTPPVLDSDGSFFLYSKLTVDKSRWQQGNVFSCSVMHEALHNHYTQKSLSLSPG chain 2: DIVMTQSPDSLAVSLGERATINCKSSQSLFNVRSRKNYLAWYQQKPGQPPKLLISWASTRESGVPDRFSGSGSGTDFTLTISSLQAEDVAVYYCKQSYDLFTFGSGTKLEIKGGGSGGGGEVQLVESGGGLVQPGGSLRLSCAASGYTFTSYWMHWVRQAPGKGLEWIGEIKPSNGLTNYIEKFKNRFTISVDKAKNSAYLQMNSLRAEDTAVYYCTRTITTTEGYWFFDVWGQGTLVTVSSGCPPCPAPEAAGAPSVFLFPPKPKDTLMISRTPEVTCVVVDVSHEDPEVKFNWYVDGVEVHNAKTKPREEQYNSTYRVVSVLTVLHQDWLNGKEYKCKVSNKALPAPIEKTISKAKGQPREPQVYTLPPCREEMTKNQVSLSCAVKGFYPSDIAVEWESNGQPENNYKTTPPVLDSDGSFFLVSKLTVDKSRWQQGNVFSCSVMHEALHNHYTQKSLSLSPG", "values": [{"measurement": "T84 tumor cell EC50 (T cell cytotoxicity, E:T 5:1)", "setting": "[1]", "result": 0.07, "unit": "nM"}, {"measurement": "Kd", "setting": "[9]", "result": 6.18, "unit": "nM"}, {"measurement": "Kd", "setting": "[2]", "result": 12.2, "unit": "nM"}, {"measurement": "koff", "setting": "[2]", "result": 0.00183, "unit": "s⁻¹"}, {"measurement": "kon", "setting": "[2]", "result": 150000, "unit": "M⁻¹ s⁻¹"}, {"measurement": "T84 tumor cell EC50 (T cell cytotoxicity, E:T 5:1)", "setting": "[3]", "result": 0.07, "unit": "nM"}, {"measurement": "Kd", "setting": "[4]", "result": 3.61, "unit": "nM"}, {"measurement": "koff", "setting": "[4]", "result": 0.001, "unit": "s⁻¹"}, {"measurement": "kon", "setting": "[4]", "result": 280000, "unit": "M⁻¹ s⁻¹"}, {"measurement": "Kd", "setting": "Human CD3 epsilon-delta", "result": 3.34, "unit": "nM"}, {"measurement": "koff", "setting": "Human CD3 epsilon-delta", "result": 0.000985, "unit": "s⁻¹"}, {"measurement": "kon", "setting": "Human CD3 epsilon-delta", "result": 295000, "unit": "M⁻¹ s⁻¹"}, {"measurement": "Kd", "setting": "[5]", "result": 3.01, "unit": "nM"}, {"measurement": "koff", "setting": "[5]", "result": 0.000433, "unit": "s⁻¹"}, {"measurement": "kon", "setting": "[5]", "result": 144000, "unit": "M⁻¹ s⁻¹"}, {"measurement": "Kd", "setting": "[6]", "result": 4.65, "unit": "nM"}, {"measurement": "koff", "setting": "[6]", "result": 0.000457, "unit": "s⁻¹"}, {"measurement": "kon", "setting": "[6]", "result": 98200, "unit": "M⁻¹ s⁻¹"}, {"measurement": "Kd", "setting": "[10]", "result": 1.32, "unit": "nM"}, {"measurement": "EC50", "setting": "Human GUCY2C ECD-muIgG2a", "result": 0.705, "unit": "nM"}, {"measurement": "Kd", "setting": "[7]", "result": 4.35, "unit": "nM"}, {"measurement": "koff", "setting": "[7]", "result": 0.000369, "unit": "s⁻¹"}, {"measurement": "kon", "setting": "[7]", "result": 85500, "unit": "M⁻¹ s⁻¹"}]}
{"binder": "NSGDCRSSTCEGLDLLRKIS (also called GUCY2c peptide 19; GUCY2c-ECD peptide number 19)", "note": "[GUCY2C_ECD Peptide 19]", "values": [{"measurement": "IC50 (read off the curve)", "setting": "GUCY2C-1608", "result": "~100", "unit": "nM"}]}
